This is an account of results in doi:10.1101/598128 (bioRxiv, 2019).

Sequences and labels used below:
T1: His-Orc1 (subunit of the purified His-ORC complex) (budding yeast, UniProt P54784 1-913)
T1 sequence: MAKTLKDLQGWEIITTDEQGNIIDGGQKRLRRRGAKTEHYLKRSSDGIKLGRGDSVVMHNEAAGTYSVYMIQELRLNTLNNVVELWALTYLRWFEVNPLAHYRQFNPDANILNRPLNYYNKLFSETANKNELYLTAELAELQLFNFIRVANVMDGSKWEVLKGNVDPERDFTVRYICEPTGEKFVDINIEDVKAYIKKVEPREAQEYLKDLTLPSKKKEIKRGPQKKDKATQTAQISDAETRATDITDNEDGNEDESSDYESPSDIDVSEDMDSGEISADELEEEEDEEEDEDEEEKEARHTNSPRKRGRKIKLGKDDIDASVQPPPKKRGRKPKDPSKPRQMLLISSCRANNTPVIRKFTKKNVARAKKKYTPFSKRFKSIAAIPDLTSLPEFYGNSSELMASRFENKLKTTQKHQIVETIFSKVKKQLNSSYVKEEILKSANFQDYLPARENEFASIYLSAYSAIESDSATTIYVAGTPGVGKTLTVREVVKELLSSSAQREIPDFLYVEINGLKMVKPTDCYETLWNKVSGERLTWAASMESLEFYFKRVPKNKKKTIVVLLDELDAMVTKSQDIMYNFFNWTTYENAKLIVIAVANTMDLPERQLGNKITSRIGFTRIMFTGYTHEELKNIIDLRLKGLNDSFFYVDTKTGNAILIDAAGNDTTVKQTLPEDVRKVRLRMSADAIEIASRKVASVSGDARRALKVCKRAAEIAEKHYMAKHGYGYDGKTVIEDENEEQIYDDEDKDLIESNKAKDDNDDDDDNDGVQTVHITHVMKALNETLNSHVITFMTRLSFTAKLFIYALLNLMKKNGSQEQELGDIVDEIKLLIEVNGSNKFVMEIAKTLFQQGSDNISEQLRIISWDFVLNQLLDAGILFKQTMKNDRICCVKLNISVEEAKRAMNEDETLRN

T2: 6xHis-Hop1 (budding yeast, UniProt P20050 1-605)
T2 sequence (looked up): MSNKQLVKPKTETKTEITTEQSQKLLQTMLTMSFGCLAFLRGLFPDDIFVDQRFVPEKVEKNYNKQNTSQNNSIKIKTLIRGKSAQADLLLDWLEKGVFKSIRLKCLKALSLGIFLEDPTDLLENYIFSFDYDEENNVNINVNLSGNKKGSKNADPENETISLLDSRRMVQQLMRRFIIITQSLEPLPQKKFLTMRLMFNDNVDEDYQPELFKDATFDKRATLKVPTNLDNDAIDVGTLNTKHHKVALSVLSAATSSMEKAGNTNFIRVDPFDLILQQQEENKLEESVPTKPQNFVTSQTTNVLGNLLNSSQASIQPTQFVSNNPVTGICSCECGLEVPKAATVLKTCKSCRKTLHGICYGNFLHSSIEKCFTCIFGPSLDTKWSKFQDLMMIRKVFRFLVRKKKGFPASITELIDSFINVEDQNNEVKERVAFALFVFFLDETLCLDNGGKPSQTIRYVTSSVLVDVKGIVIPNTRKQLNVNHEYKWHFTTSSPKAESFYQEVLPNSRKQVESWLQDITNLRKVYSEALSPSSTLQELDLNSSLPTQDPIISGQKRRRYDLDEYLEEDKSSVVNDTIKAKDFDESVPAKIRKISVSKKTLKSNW

B1: Orc5 (subunit of the purified His-ORC complex) (natural protein, budding yeast)
chain: MNVTTPEVAFREYQTNCLASYISADPDITPSNLILQGYSGTGKTYTLKKYFNANPNLHAVWLEPVELVSWKPLLQAIARTVQYKLKTLYPNIPTTDYDPLQVEEPFLLVKTLHNIFVQYESLQEKTCLFLILDGFDSLQDLDAALFNKYIKLNELLPKDSKINIKFIYTMLETSFLQRYSTHCIPTVMFPRYNVDEVSTILVMSRCGELMEDSCLRKRIIEEQITDCTDDQFQNVAANFIHLIVQAFHSYTGNDIFALNDLIDFKWPKYVSRITKENIFEPLALYKSAIKLFLSTDDNLSENGQGESAITTNRDDLENSQTYDLSIISKYLLIASYICSYLEPRYDASIFSRKTRIIQGRAAYGRRKKKEVNPRYLQPSLFAIERLLAIFQAIFPIQGKAESGSLSALREESLMKANIEVFQNLSELHTLKLIATTMNKNIDYLSPKVRWKVNVPWEIIKEISESVHFNISDYFSDIHE
B2: His-MBP-Pch2 (natural protein, budding yeast, UniProt P38126 1-564, looked up)
chain: MSYIVDLQVRGSSLRVIKCMFREDEQISSLHSGSDSKQNSNKKLGEFLNLLKAVVKRKLESFPKDRLKTSIITGQELMREGQGSIEIKDPPTEAQQHLIRSLAKVLLHQFSSINGKVNTVNEGQDNLFLSLFVKKISIEQQSTSHVSIKLNFHEKINLGQHIDSILDSEETNESDTYHMGSVDEFIIYPFCCLEEQDELKNGSILSTEFDKIDLELDEDDGFEGETLNNCINSVGNFDIPLSKQTLNLVNISYLPGTTFEGQWESLYFGNNIKERLYSYATISLKIARFKQTGDSNQEDITTLITNNKLLLVHGPPGTGKTTLCKALCQKLSVRREFSDGSDTIDTNYKGIIIELSCARIFSKWFGESSKNISIVFKDIEELLKVNEGRGIFICLLIDEVEAIASSRTNLSSRNESTDGIRVVNTLLTQLDRLKKYHNFLALATSNLLDSLDDAFVDRADGVFYVGNPTAEGILHILKVCIEEMITSGIILFHARSTGVKFFNKYQDILRKIAIKCSTVDISGRTIRKLPLMCLSEYFRTFPVDDDEFVLALAMSARKLSAARK

The data set “His-MBP-Pch2” has as its target B2. Description: cross-linking.
The target of data set [1] is T1, His-Orc1 (subunit of the purified …). Description: cross-linking.
The data set “SEC” concerns the molecule itself. Description: SEC. On the technique in general: In gel filtration, larger molecules generally elute earlier.
The target in another data set is T2, 6xHis-Hop1. Briefly: pull-down.

Take B1: the binding result in the data set with His-MBP-Pch2 was “binds”.
Turning to B2, the binding result (in data set [1]; with 6xHis-Hop1) was “binds” each time. The stoichiometry N (in general, a count of units in the complex or per binding partner) in “SEC” was found to be 6.
